Measurements: patent publication US10487348B2, “3-alpha-hydroxysteroid dehydrogenase mutants and process for the preparation of ursodeoxycholic acid” (Pharmazell GmbH, priority 2014, dated 2019)
Entries after “also recorded” stand apart in the source; their conditions may differ. Where two headings read alike, the source gives them in different places. Marks after values point to notes of the source that are not given here.

Experiments:
[1] = substrate: NC(=O)C1=CN([C@@H]2O[C@H](COP(=O)(O)OP(=O)(O)OC[C@H]3O[C@@H](n4cnc5c(N)ncnc54)[C@H](O)[C@@H]3O)[C@@H](O)[C@H]2O)C=CC1; experiment: purified protein, by the assay type; details: other: Table 15, substrate NADH; without tag; apparent values; pH 8.0; 25.0 °C
[2] = substrate: C[C@H](CCC(=O)O)[C@H]1CC[C@H]2[C@@H]3C(=O)C[C@@H]4CC(=O)CC[C@]4(C)[C@H]3CC(=O)[C@]12C; experiment: cells, lysate or membranes named; details: pH 8.0, 25.0 °C
[3] = substrate: C[C@H](CCC(=O)O)[C@H]1CC[C@H]2[C@@H]3C(=O)C[C@@H]4CC(=O)CC[C@]4(C)[C@H]3CC(=O)[C@]12C; experiment: Kinetics of 3α-HSDH [T188G], N-terminal His tag; format: biochemical, Comamonas testosteroni; details: other: Table 14, substrate DHCA, apparent values, pH 8.0
Description: (§1) The activity of the 3α-HSDH and of the mutants was determined using a photometric assay, where the decrease in absorbance was measured at 340 nm over a period of 30 seconds.
(§2) The targeted exchange of amino acid radicals was performed analogously to Example 2B.
(§3) Following cultivation and expression, the cells were harvested, and the specific activities of the cell-free crude extracts were determined at substrate concentrations of 10 mM DHCA. The enzyme variants where the activity measurements with crude extract enzyme were most promising were purified by means of Ni-NTA chromatography, and their kinetic constants were determined by measurements with different DHCA concentrations of between 10 μM and 20 mM. In addition, an expression check by means of SDS PAGE was carried out for all mutants.

[4] = substrate: NC(=O)C1=CN([C@@H]2O[C@H](COP(=O)(O)OP(=O)(O)OC[C@H]3O[C@@H](n4cnc5c(N)ncnc54)[C@H](O)[C@@H]3O)[C@@H](O)[C@H]2O)C=CC1; experiment: Michaelis-Menten kinetics of wild-type 3α-HSDH with N-terminal His tag; format: biochemical, Comamonas testosteroni; details: other: Table 15, substrate NADH, apparent values, pH 8.0
Text: The His-tag allows for very simple purification of the HSDH protein since this sequence is bound with high specificity by specific chromatographic material (NTA (Ni-nitrilotriacetate)-modified support material, loaded with divalent nickel ions, for example “His Pur Ni-NTA” (Nimagen B. V., Nijmegen, The Netherlands)). To this end, the cell-free crude extract is applied to a dropping column comprising this material, which dropping column has previously been equilibrated with the disruption buffer (3 to 5 column volumes). Weakly binding protein was removed by washing with 3 to 5 column volumes of wash buffer (20 mM imidazole, 50 mM sodium phosphate, 300 mM NaCl, pH 8). The His-tag-3α-HSDH protein was eluted with imidazole-comprising elution buffer (250 mM imidazole, 50 mM sodium phosphate, 300 mM NaCl, pH 8). The process was carried out at room temperature. The imidazole which was present was to be removed by buffer exchange.
as §1, §2
as §3, with “and their kinetic constants were determined by measurements with different DHCA concentrations of between 10 μM and 20 mM.” left out

3α-HSDH; substrate DHCA [5] = molecular target: T1, 3α-HSDH; substrate DHCA (Comamonas testosteroni, UniProt P80702); format: biochemical
T1 sequence (P80702 whole entry, looked up): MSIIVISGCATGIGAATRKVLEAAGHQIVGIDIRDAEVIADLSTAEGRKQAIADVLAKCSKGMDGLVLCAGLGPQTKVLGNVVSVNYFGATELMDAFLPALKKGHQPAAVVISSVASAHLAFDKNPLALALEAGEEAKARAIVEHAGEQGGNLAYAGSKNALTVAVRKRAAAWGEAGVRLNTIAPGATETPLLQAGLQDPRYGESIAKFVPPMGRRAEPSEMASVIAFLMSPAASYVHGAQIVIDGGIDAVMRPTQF

3α-HSDH; substrate DHCA [6] = molecular target: 3α-HSDH; substrate DHCA (Comamonas testosteroni, UniProt P80702, R34N); format: biochemical; details: versus wild type
3α-HSDH; substrate DHCA [7] = format: biochemical, Comamonas testosteroni
3α-HSDH; substrate DHCA [8] = molecular target: 3α-HSDH; substrate DHCA (Comamonas testosteroni, UniProt P80702, L68A/R34N); format: biochemical; details: purified enzyme
3α-HSDH; substrate DHCA [9] = format: biochemical, Comamonas testosteroni; details: substrate DHCA; FIGS. 8A-8B; listed as dual mutant
[10] = other: crude extract (without His tag), DHCA, read from the diagram
[11] = Table 4, variants modified at position 34
[12] = Table 9, crude extract, dual mutant position 34 and 68
[13] = Table 7, variants modified at position 68

B1: Comamonas testosteroni 3α-HSDH, wild type, without His tag, SEQ ID NO:4 (Comamonas testosteroni) (protein)
chain: MSIIVISGCATGIGAATRKVLEAAGHQIVGIDIRDAEVIADLSTAEGRKQAIADVLAKCSKGMDGLVLCAGLGPQTKVLGNVVSVNYFGATELMDAFLPALKKGHQPAAVVISSVASAHLAFDKNPLALALEAGEEAKARAIVEHAGEQGGNLAYAGSKNALTVAVRKRAAAWGEAGVRLNTIAPGATETPLLQAGLQDPRYGESIAKFVPPMGRRAEPSEMASVIAFLMSPAASYVHGAQIVIDGGIDAVMRPTQF
With B1 the Km [1] was 46.9 ± 5.9 µM, the Vmax [1] was 186 µmol/min/mg and the kcat [1] was 88.5 s⁻¹. The kcat/Km [1] was 1.88e+06 M⁻¹ s⁻¹, the Km [2, 10] was 200* μM and the Vmax [2, 10] was 25 µmol/min/mg.

B2: Comamonas testosteroni 3α-HSDH mutant [T188G], N-terminal hexahistidine tag (Comamonas testosteroni; T188G) (protein)
chain: MSIIVISGCATGIGAATRKVLEAAGHQIVGIDIRDAEVIADLSTAEGRKQAIADVLAKCSKGMDGLVLCAGLGPQTKVLGNVVSVNYFGATELMDAFLPALKKGHQPAAVVISSVASAHLAFDKNPLALALEAGEEAKARAIVEHAGEQGGNLAYAGSKNALTVAVRKRAAAWGEAGVRLNTIAPGAGETPLLQAGLQDPRYGESIAKFVPPMGRRAEPSEMASVIAFLMSPAASYVHGAQIVIDGGIDAVMRPTQF
B2 was tested, and the Km [3] was 1458 ± 182.6 µM, the Vmax [3] was 20.3 ± 0.8 U/mg and the kcat [3] was 9.6 s⁻¹.

B3: Comamonas testosteroni 3α-HSDH, wild type, N-terminal hexahistidine tag (Comamonas testosteroni) (protein)
chain: MSIIVISGCATGIGAATRKVLEAAGHQIVGIDIRDAEVIADLSTAEGRKQAIADVLAKCSKGMDGLVLCAGLGPQTKVLGNVVSVNYFGATELMDAFLPALKKGHQPAAVVISSVASAHLAFDKNPLALALEAGEEAKARAIVEHAGEQGGNLAYAGSKNALTVAVRKRAAAWGEAGVRLNTIAPGATETPLLQAGLQDPRYGESIAKFVPPMGRRAEPSEMASVIAFLMSPAASYVHGAQIVIDGGIDAVMRPTQF
In the case of B3, the Km [4] is reported as 59.2 ± 6.9 µM, the Vmax [4] is reported as 109 µmol/min/mg and the kcat [4] is reported as 47.1 s⁻¹. For the same molecule, the kcat/Km [4] was 796000 M⁻¹ s⁻¹.

B4: Crude extract (without His tag): non-tagged wild-type 3α-HSDH of Comamonas testosteroni (SEQ ID NO: 4) (protein, listed as Comamonas testosteroni)
chain: MSIIVISGCATGIGAATRKVLEAAGHQIVGIDIRDAEVIADLSTAEGRKQAIADVLAKCSKGMDGLVLCAGLGPQTKVLGNVVSVNYFGATELMDAFLPALKKGHQPAAVVISSVASAHLAFDKNPLALALEAGEEAKARAIVEHAGEQGGNLAYAGSKNALTVAVRKRAAAWGEAGVRLNTIAPGATETPLLQAGLQDPRYGESIAKFVPPMGRRAEPSEMASVIAFLMSPAASYVHGAQIVIDGGIDAVMRPTQF
In the case of B4, the “DHCA concentration at which maximum activity is reached” value (3α-HSDH; substrate DHCA [5]) is reported as “approximately 1 mM”.

B5: 3α-HSDH [R34N] (protein)
chain: MSIIVISGCATGIGAATRKVLEAAGHQIVGIDINDAEVIADLSTAEGRKQAIADVLAKCSKGMDGLVLCAGLGPQTKVLGNVVSVNYFGATELMDAFLPALKKGHQPAAVVISSVASAHLAFDKNPLALALEAGEEAKARAIVEHAGEQGGNLAYAGSKNALTVAVRKRAAAWGEAGVRLNTIAPGATETPLLQAGLQDPRYGESIAKFVPPMGRRAEPSEMASVIAFLMSPAASYVHGAQIVIDGGIDAVMRPTQFLEHHHHHH
With B5 the “activity improved (best mutant at position 34)” value (3α-HSDH; substrate DHCA [6]) was “approx. 3 fold”, the Specific activity (3α-HSDH; substrate DHCA [7]; [11]) was 3.0 U/mg and the Volumetric activity (3α-HSDH; substrate DHCA [7]; [11]) was 58.0 U/ml.

B6: 3α-HSDH [R34N/L68A] (protein)
chain: MSIIVISGCATGIGAATRKVLEAAGHQIVGIDINDAEVIADLSTAEGRKQAIADVLAKCSKGMDGLVACAGLGPQTKVLGNVVSVNYFGATELMDAFLPALKKGHQPAAVVISSVASAHLAFDKNPLALALEAGEEAKARAIVEHAGEQGGNLAYAGSKNALTVAVRKRAAAWGEAGVRLNTIAPGATETPLLQAGLQDPRYGESIAKFVPPMGRRAEPSEMASVIAFLMSPAASYVHGAQIVIDGGIDAVMRPTQFLEHHHHHH
In the case of B6, the “increase of the maximum activity over the wild type” value (3α-HSDH; substrate DHCA [8]) is reported as “approx. 25%”, the “activity compared with the wild type with His tag (courses of Michaelis-Menten kinetics)” value (3α-HSDH; substrate DHCA [9]) is reported as “not being quite as active as the wild type at low substrate concentrations; also recorded: markedly higher activities than the wild-type enzyme at higher substrate concentrations” and the Specific activity (3α-HSDH; substrate DHCA [7]; [12]) is reported as 4.5 U/mg. For the same molecule, the Volumetric activity (3α-HSDH; substrate DHCA [7]; [12]) was 139.7 U/ml.

B7: 3α-HSDH (WT): Comamonas testosteroni 3α-HSDH wild type, C-terminally extended by His-Tag LEHHHHHH (SEQ ID NO: 5) (protein)
chain: MSIIVISGCATGIGAATRKVLEAAGHQIVGIDIRDAEVIADLSTAEGRKQAIADVLAKCSKGMDGLVLCAGLGPQTKVLGNVVSVNYFGATELMDAFLPALKKGHQPAAVVISSVASAHLAFDKNPLALALEAGEEAKARAIVEHAGEQGGNLAYAGSKNALTVAVRKRAAAWGEAGVRLNTIAPGATETPLLQAGLQDPRYGESIAKFVPPMGRRAEPSEMASVIAFLMSPAASYVHGAQIVIDGGIDAVMRPTQFLEHHHHHH
modifications: C-terminal His-tag LEHHHHHH
B7 was tested, and the substrate excess inhibition (3α-HSDH; substrate DHCA [5]) was “no longer demonstrates the pronounced substrate excess inhibition”, the Specific activity (3α-HSDH; substrate DHCA [7]; [11]) was 2.1 U/mg and the Volumetric activity (3α-HSDH; substrate DHCA [7]; [11]) was 38.0 U/ml. For the same molecule, the Specific activity (3α-HSDH; substrate DHCA [7]; [13]) was 2.1 U/mg, the Volumetric activity (3α-HSDH; substrate DHCA [7]; [13]) was 44.9 U/ml and the Specific activity (3α-HSDH; substrate DHCA [7]; [12]) was 2.1 U/mg. The Volumetric activity (3α-HSDH; substrate DHCA [7]; [12]) was 44.9 U/ml.

B8: Comamonas testosteroni 3α-HSDH, wild type, C-terminal 9×His tag (SEQ ID NO: 51) (Comamonas testosteroni) (protein)
chain: MSIIVISGCATGIGAATRKVLEAAGHQIVGIDIRDAEVIADLSTAEGRKQAIADVLAKCSKGMDGLVLCAGLGPQTKVLGNVVSVNYFGATELMDAFLPALKKGHQPAAVVISSVASAHLAFDKNPLALALEAGEEAKARAIVEHAGEQGGNLAYAGSKNALTVAVRKRAAAWGEAGVRLNTIAPGATETPLLQAGLQDPRYGESIAKFVPPMGRRAEPSEMASVIAFLMSPAASYVHGAQIVIDGGIDAVMRPTQFLEHHHHHHHHH
Work on B8 yielded a Km ([2]; other: His tag length 9, DHCA 10 μM-10 mM, NADH 0.2 mM, purified) of 70.5 ± 14.2 µM.
